Assays:
DvCODH = molecular target: T1, DvCODH (Nitratidesulfovibrio vulgaris, UniProt Q72A99); format: biochemical; conditions: CO-saturated 50 mM HEPES/NaOH pH 8, 2 mM DTE, 20 mM viologen, 30 °C
T1 construct: gene cooS

[1] = molecular target: the molecule itself; experiment: SEC; size exclusion chromatography of the purified enzyme; measured molecular mass compared with the theoretical mass of the dimer

T1 sequence (Q72A99 1-629): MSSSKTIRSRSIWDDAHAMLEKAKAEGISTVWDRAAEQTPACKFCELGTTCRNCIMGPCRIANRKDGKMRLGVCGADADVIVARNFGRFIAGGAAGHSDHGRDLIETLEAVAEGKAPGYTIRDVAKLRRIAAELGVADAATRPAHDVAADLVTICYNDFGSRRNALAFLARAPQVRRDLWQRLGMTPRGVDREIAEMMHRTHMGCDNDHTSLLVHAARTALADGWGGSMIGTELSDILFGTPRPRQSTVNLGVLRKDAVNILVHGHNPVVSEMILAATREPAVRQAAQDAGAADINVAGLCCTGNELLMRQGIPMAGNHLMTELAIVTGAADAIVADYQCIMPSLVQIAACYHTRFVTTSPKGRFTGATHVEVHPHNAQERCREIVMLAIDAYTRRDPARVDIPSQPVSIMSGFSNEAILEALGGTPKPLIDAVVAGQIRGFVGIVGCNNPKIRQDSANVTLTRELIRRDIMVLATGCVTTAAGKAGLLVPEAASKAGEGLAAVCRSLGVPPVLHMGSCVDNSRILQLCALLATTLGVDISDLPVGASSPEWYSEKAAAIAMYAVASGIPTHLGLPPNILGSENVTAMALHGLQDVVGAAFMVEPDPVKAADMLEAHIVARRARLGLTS

C[n+]1ccc(-c2cc[n+](C)cc2)cc1 [MV, methyl viologen]
CO-dependent viologen reduction, relative activity (DvCODH): essential for viologen reduction using the four mediators MV, EV, BV, and diquat (DQ)

B1: ChCODH2 F41A (enzyme, Carboxydothermus hydrogenoformans)
chain: MAKQNLKSTDRAVQQMLDKAKREGIQTVWDRYEAMKPQCGAGETGLCCRHCLQGPCRINPFGDEPKVGICGATAEVIVARGLDRSIAAGAAGHSGHAKHLAHTLKKAVQGKAASYMIKDRTKLHSIAKRLGIPTEGQKDEDIALEVAKAALADFHEKDTPVLWVTTVLPPSRVKVLSAHGLIPAGIDHEIAEIMHRTSMGCDADAQNLLLGGLRCSLADLAGCYMGTDLADILFGTPAPVVTESNLGVLKADAVNVAVHGHNPVLSDIIVSVSKEMENEARAAGATGINVVGICCTGNEVLMRHGIPACTHSVSQEMAMITGALDAMILDYQCIQPSVATIAECTGTTVITTMEMSKITGATHVNFAEEAAVENAKQILRLAIDTFKRRKGKPVEIPNIKTKVVAGFSTEAIINALSKLNANDPLKPLIDNVVNGNIRGVCLFAGCNNVKVPQDQNFTTIARKLLKQNVLVVATGCGAGALMRHGFMDPANVDELCGDGLKAVLTAIGEANGLGGPLPPVLHMGSCVDNSRAVALVAALANRLGVDLDRLPVVASAAEAMHEKAVAIGTWAVTIGLPTHIGVLPPITGSLPVTQILTSSVKDITGGYFIVELDPETAADKLLAAINERRAGLGLPW
notes: Ni-Fe carbon monoxide dehydrogenase 2 (ChCODH2), Carboxydothermus hydrogenoformans, locus Chy_0085; site-directed variant in pET28a; source: E. coli BL21(DE3) with pRKISC, purified (Ni-NTA; size-exclusion chromatography)
stoichiometry N [1]: 2

B2: ChCODH2 wild type (carbon monoxide dehydrogenase 2 of Carboxydothermus hydrogenoformans) (enzyme)
chain: MAKQNLKSTDRAVQQMLDKAKREGIQTVWDRYEAMKPQCGFGETGLCCRHCLQGPCRINPFGDEPKVGICGATAEVIVARGLDRSIAAGAAGHSGHAKHLAHTLKKAVQGKAASYMIKDRTKLHSIAKRLGIPTEGQKDEDIALEVAKAALADFHEKDTPVLWVTTVLPPSRVKVLSAHGLIPAGIDHEIAEIMHRTSMGCDADAQNLLLGGLRCSLADLAGCYMGTDLADILFGTPAPVVTESNLGVLKADAVNVAVHGHNPVLSDIIVSVSKEMENEARAAGATGINVVGICCTGNEVLMRHGIPACTHSVSQEMAMITGALDAMILDYQCIQPSVATIAECTGTTVITTMEMSKITGATHVNFAEEAAVENAKQILRLAIDTFKRRKGKPVEIPNIKTKVVAGFSTEAIINALSKLNANDPLKPLIDNVVNGNIRGVCLFAGCNNVKVPQDQNFTTIARKLLKQNVLVVATGCGAGALMRHGFMDPANVDELCGDGLKAVLTAIGEANGLGGPLPPVLHMGSCVDNSRAVALVAALANRLGVDLDRLPVVASAAEAMHEKAVAIGTWAVTIGLPTHIGVLPPITGSLPVTQILTSSVKDITGGYFIVELDPETAADKLLAAINERRAGLGLPW
notes: Ni-Fe carbon monoxide dehydrogenase 2 (ChCODH2), Carboxydothermus hydrogenoformans, locus Chy_0085; synthesized DNA in pET28a; Carries Fe-S and Ni-Fe clusters (B, C, D); also called ChCODH2 WT; WT; source: E. coli BL21(DE3) with pRKISC, purified (Ni-NTA; size-exclusion chromatography)
binding result [1]: binds

From publication PMC10979024 (Nature Communications, 2024)
